From PMC11864173 (Science Advances, 2025)

Target: AaRseP(WT)-His8 (Aquifex aeolicus RseP, wild type) (Aquifex aeolicus, UniProt O67776)
Experiment: cryo-EM structure

- binding result: binds
B1: 4A9 Fab (Fab of the anti-AaRseP mouse monoclonal antibody 4A9), with PA tag (Fab, V domains shown)
VH: EVKLVESGGGLVQPGGSLRLSCVTSGFTFTDYYMSWVRQPPGKALEWLAFIRNKVNGYTTEYRASVKGRFTISRDSSQSILYLQVNTLRAEDSATYYCARDRGGNGVYFDYWGQGTTLTVSS
VL: DIVMTQSHKFMSTSVGDRVSITCKASQDVGTDVAWYQQKPGQSPKLLIYWASIRHTGVPDRFTGSGSGTDFTLTISNVQSEDLADYFCQQYSSYPLTFGAGTKLELE
